Here are results for one molecule from patent publication US20160222130A1 (Astellas, published 2016).

What all share (test): ELISA; Tie2-Fc coated at 1 ug/mL, chemiluminescence
In one assay the target is T1, Human Tie2 (1-452)r2-Fc (human, UniProt Q02763 23-452).
T1 construct: range 1-452
The method, then:
(§1) The next day, the immobilized solution was removed, and the plate was washed with a TBS-T solution, and incubated for 60 minutes by the addition of 50 μL of a Blocker™ Casein in TBS (Thermo Fisher Scientific Inc., 37532) to perform blocking. The resultant was washed with a TBS-T solution, and TIE-1-Igγ1-LALA, diluted with 0.05% Tween 20 (Nacalai Tesque Inc., 28353-85)—containing Blocker™ Casein in TBS from 0.03 ng/mL to 100 ng/mL through eight steps, was added thereto in the amount of 20 μL per well. The resultant was incubated at room temperature for 90 minutes and then washed with a TBS-T solution three times, and 20 μL of a biotin-labeled anti-human kappa light chain antibody, which had been diluted to 0.1 μg/mL with 0.05% Tween 20-containing Blocker™ Casein in TBS, was added thereto. The resultant was incubated at room temperature for 60 minutes and then washed with a TBS-T solution three times, and 20 μL of alkaline phosphatase-labeled streptavidin, which had been diluted to 0.1 μg/mL with 0.05% Tween 20-containing Blocker™ Casein in TBS, was added thereto. The resultant was incubated at room temperature for 60 minutes and then washed with a TBS-T solution three times, and 50 μL of Chemiluminescent Ultra Sensitive AP Microwell and/or Membrane Substrate (450 nm), which had been 5-fold diluted with 1 mM MgCl₂-containing 20 mM TBS (pH 9.8) as a substrate, was added thereto. The resultant was incubated at room temperature under light-shielding for 40 minutes, and then luminescent intensity thereof was measured with an EnVision™ multi-label counter. The EC₅₀ value of TIE-1-Igγ1-LALA with respect to the human Tie2 (1-452)-Fc chimeric protein and 23 mutant proteins thereof were calculated. The relative value of luminescent intensity of 100 ng/mL TIE-1-Igγ1-LALA as maximum concentration point with respect to human Tie2 (1-452)-Fc chimeric protein and 23 mutant proteins thereof when the convergence value of the sigmoid curve of TIE-1-Igγ1-LALA binding to the human Tie2 (1-452)-Fc chimeric protein which was taken as 100% was calculated (Table 8 and Table 9). Further, the EC₅₀ value and the convergence value were calculated by Sigmoid-Emax model non-linear regression analysis.

A further assay deals with T2, Human Tie2 (1-452)r3-Fc (human, UniProt Q02763 23-452).
T2 construct: range 1-452
The method, then: as §1

A further assay has as its target T3, Human Tie2 (1-452)r4-Fc (human, UniProt Q02763 23-452).
T3 construct: range 1-452
The method, then: as §1

A further assay deals with T4, Human Tie2 (1-452)r5-Fc (human, UniProt Q02763 23-452).
T4 construct: range 1-452
The method, then: as §1

For a further assay, the target named is T5, Human Tie2 (1-452)r6-Fc (human, UniProt Q02763 23-452).
T5 construct: range 1-452
T5 sequence (Q02763 other isoform, or with tags, fused parts or gaps limits assumed, form in doubt): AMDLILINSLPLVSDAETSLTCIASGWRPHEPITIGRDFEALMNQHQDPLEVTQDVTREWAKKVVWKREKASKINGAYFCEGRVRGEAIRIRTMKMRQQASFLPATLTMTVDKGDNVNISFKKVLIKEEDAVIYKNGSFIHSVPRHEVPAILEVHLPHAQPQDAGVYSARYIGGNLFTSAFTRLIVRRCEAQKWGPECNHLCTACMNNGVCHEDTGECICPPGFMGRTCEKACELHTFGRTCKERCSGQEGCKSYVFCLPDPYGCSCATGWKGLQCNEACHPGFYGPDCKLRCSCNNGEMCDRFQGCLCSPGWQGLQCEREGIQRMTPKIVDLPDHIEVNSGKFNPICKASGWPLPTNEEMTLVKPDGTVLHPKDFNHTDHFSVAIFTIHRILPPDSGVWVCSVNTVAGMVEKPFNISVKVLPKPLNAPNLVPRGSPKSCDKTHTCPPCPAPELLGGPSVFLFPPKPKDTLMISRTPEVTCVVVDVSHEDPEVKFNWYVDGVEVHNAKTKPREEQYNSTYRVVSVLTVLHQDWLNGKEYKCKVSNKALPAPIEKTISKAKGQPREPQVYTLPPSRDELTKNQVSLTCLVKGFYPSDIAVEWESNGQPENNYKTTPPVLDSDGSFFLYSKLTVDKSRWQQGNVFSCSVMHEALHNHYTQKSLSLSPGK
The method, then:
as §1

The target in another assay is T6, Human Tie2 (1-452)r7-Fc (human, UniProt Q02763 23-452).
T6 construct: range 1-452
The method, then:
as §1

The target in another assay is T7, Human Tie2 (1-452)g1-Fc (human, UniProt Q02763 23-452).
T7 construct: range 1-452
T7 sequence (Q02763 other isoform, or with tags, fused parts or gaps limits assumed, form in doubt): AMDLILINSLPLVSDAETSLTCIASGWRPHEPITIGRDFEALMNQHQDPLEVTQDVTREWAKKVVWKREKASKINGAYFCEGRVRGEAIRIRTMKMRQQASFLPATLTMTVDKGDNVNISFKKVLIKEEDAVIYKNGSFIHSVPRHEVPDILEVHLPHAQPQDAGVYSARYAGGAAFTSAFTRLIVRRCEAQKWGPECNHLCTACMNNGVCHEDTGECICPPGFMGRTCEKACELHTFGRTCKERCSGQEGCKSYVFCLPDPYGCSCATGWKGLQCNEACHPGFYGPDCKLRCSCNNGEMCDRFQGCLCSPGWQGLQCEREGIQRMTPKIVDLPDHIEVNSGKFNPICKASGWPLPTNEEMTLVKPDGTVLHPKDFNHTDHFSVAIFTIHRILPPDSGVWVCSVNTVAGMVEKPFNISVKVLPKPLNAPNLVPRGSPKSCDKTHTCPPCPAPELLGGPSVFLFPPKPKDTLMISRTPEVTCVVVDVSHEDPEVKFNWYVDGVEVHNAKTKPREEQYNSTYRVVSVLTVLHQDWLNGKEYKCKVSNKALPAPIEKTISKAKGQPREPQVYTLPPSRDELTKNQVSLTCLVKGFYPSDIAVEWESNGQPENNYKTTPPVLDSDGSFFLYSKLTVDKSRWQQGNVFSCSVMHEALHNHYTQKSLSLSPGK
The method, then: as §1

The target of the next assay is T8, Human Tie2 (1-452)g2-Fc (human, UniProt Q02763 23-452).
T8 construct: range 1-452
The method, then:
as §1

A further assay addresses T9, Human Tie2 (1-452)g3-Fc (human, UniProt Q02763 23-452).
T9 construct: range 1-452
The method, then: as §1

For another assay, the target named is T10, Human Tie2 (1-452)g5-Fc (human, UniProt Q02763 23-452).
T10 construct: range 1-452
T10 sequence (Q02763 other isoform, or with tags, fused parts or gaps limits assumed, form in doubt): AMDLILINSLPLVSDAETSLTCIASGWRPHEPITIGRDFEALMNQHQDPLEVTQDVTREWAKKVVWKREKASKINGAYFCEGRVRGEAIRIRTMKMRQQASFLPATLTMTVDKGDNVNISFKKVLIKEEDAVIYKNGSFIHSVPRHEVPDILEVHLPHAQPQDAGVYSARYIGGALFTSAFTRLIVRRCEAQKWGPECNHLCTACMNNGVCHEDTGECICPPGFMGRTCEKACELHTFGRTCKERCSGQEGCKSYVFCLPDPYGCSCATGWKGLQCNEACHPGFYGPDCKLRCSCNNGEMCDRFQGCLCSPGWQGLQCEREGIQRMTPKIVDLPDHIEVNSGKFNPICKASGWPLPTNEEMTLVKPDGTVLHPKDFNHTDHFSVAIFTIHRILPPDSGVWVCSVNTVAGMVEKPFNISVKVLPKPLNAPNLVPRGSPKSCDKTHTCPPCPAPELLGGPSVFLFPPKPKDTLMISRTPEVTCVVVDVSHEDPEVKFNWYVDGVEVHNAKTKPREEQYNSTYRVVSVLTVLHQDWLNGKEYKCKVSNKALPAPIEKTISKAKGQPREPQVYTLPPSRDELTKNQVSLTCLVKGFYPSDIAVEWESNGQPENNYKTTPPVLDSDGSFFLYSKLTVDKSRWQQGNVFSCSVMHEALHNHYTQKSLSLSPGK
The method, then: as §1

The target of a further assay is T11, Human Tie2 (1-452)g6-Fc (human, UniProt Q02763 23-452).
T11 construct: range 1-452
The method, then:
as §1

Another assay deals with T12, Human Tie2 (1-452)m1-Fc (human, UniProt Q02763 23-452).
T12 construct: range 1-452
The method, then:
as §1

In the next assay the target is T13, Human Tie2 (1-452)m3-Fc (human, UniProt Q02763 23-452).
T13 construct: range 1-452
The method, then:
as §1

The target in a further assay is T14, Human Tie2 (1-452)y1-Fc (human, UniProt Q02763 23-452).
T14 construct: range 1-452
The method, then:
as §1

In a further assay the target is T15, Human Tie2 (1-452)c1-Fc (human, UniProt Q02763 23-452).
T15 construct: range 1-452
The method, then:
as §1

The target of assay [1] is T16, human Tie2 (1-452)-Fc chimeric protein (human, UniProt Q02763 23-452).
T16 construct: range 1-452; The stated range 1-452 begins at residue 1 of the precursor
The method, then:
as §1

For a further assay, the target named is T17, Human Tie2 (1-452)r1-Fc (human, UniProt Q02763 23-452).
T17 construct: range 1-452
T17 sequence (Q02763 other isoform, or with tags, fused parts or gaps limits assumed, form in doubt): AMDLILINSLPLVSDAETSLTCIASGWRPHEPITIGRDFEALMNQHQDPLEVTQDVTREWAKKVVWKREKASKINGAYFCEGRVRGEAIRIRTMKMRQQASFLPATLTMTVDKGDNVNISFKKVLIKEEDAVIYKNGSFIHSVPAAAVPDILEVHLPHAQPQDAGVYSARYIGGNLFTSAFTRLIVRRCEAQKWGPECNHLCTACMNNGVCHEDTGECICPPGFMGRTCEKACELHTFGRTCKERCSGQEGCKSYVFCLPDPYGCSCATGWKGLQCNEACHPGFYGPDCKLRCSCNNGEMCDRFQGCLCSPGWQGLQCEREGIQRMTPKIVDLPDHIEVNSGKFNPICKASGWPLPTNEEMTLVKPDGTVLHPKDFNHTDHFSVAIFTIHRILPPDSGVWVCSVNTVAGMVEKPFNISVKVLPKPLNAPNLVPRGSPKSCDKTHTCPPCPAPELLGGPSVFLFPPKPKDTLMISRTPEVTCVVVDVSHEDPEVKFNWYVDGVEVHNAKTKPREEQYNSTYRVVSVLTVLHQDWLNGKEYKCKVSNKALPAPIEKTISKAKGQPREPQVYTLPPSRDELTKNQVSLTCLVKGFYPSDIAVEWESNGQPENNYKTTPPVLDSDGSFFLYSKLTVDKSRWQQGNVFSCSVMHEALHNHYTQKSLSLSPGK
The method, then: as §1

T3 sequence (Q02763 other isoform, or with tags, fused parts or gaps limits assumed, form in doubt): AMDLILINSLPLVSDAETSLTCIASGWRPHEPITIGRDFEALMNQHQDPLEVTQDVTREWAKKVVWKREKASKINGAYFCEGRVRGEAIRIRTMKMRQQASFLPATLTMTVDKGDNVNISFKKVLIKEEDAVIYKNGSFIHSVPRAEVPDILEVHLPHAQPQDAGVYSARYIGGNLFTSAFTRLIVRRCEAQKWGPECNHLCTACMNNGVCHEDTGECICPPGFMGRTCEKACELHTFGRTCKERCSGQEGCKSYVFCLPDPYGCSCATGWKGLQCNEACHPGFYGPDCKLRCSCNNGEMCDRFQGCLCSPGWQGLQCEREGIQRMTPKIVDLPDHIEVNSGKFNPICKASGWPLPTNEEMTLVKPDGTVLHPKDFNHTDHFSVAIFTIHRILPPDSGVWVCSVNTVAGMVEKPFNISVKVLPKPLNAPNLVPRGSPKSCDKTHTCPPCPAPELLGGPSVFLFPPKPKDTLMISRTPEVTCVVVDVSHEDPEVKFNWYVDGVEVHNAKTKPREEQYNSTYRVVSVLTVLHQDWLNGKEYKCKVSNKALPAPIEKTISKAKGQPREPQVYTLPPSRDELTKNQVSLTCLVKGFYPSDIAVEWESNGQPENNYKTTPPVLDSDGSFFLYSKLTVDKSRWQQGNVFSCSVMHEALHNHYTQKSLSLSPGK
T1 sequence (Q02763 other isoform, or with tags, fused parts or gaps limits assumed, form in doubt): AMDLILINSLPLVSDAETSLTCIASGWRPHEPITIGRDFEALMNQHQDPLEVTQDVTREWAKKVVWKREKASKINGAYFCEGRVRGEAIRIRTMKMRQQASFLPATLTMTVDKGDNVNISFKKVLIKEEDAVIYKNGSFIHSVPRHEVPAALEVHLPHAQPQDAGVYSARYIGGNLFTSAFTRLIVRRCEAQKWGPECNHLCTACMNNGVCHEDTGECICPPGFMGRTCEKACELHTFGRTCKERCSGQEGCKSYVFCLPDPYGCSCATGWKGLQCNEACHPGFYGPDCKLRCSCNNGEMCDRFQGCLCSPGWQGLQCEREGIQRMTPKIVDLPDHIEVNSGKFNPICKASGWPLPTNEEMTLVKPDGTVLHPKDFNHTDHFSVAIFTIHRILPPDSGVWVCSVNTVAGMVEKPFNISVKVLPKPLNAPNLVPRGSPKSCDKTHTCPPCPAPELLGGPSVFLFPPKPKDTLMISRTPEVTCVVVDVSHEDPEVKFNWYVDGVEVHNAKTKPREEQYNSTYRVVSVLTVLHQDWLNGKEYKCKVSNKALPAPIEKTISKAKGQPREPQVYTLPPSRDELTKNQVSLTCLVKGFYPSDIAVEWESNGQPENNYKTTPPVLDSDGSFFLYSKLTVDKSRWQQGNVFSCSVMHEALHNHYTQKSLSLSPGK

B1: TIE-1-Igγ1-LALA (antibody, human IgG1, kappa, L234A L235A)
heavy: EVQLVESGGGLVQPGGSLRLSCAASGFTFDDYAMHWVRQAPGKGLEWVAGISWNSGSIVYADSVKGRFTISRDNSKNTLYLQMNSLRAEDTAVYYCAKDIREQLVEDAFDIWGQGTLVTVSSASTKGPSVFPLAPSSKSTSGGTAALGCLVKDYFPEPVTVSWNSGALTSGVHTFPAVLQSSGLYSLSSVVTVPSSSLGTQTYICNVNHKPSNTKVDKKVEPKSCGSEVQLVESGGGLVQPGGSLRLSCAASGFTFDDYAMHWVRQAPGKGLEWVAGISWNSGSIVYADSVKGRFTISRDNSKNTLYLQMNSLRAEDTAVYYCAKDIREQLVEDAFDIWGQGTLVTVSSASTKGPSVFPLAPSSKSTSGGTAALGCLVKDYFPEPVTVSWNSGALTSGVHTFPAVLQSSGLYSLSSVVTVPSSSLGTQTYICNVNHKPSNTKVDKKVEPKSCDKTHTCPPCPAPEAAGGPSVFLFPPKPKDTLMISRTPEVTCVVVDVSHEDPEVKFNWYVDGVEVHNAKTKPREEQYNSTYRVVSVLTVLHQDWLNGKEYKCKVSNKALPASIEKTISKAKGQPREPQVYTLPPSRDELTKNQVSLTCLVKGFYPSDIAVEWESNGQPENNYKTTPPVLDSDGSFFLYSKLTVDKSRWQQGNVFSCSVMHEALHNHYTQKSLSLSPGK
light: DIQMTQSPSSLSASVGDRVTITCRSSQSLLHSHRYNYLDWYQQKPGKAPKLLIYLGSNRASGVPSRFSGSGSGTDFTLTISSVQPEDFATYYCMQTLQTPLTFGQGTKVEIKRTVAAPSVFIFPPSDEQLKSGTASVVCLLNNFYPREAKVQWKVDNALQSGNSQESVTEQDSKDSTYSLSSTLTLSKADYEKHKVYACEVTHQGLSSPVTKSFNRGEC
notes: Tandem tetravalent format: two heavy chains (VH-CH1-linker-VH-CH1-CH2-CH3) and four light chains; also called tetravalent anti-human Tie2 antibody with L234A, L235A and P331S
In the case of B1, the concentration for a half-maximal effect (EC50) with Human Tie2 (1-452)r2-Fc was determined as 0.9 ng/mL; with Human Tie2 (1-452)r3-Fc, 1 ng/mL; in the assay with Human Tie2 (1-452)r4-Fc it was 1 ng/mL; with Human Tie2 (1-452)r5-Fc it was 1 ng/mL; in the assay with Human Tie2 (1-452)r6-Fc, 1 ng/mL; with Human Tie2 (1-452)r7-Fc, 1.1 ng/mL. Further, the EC50 came out at 12.3 ng/mL in the assay with Human Tie2 (1-452)g1-Fc; 5.5 ng/mL with Human Tie2 (1-452)g2-Fc; 1.1 ng/mL with Human Tie2 (1-452)g3-Fc; 2.2 ng/mL with Human Tie2 (1-452)g5-Fc; 1.3 ng/mL in the assay with Human Tie2 (1-452)g6-Fc; 1 ng/mL with Human Tie2 (1-452)m1-Fc. The EC50 in the assay with Human Tie2 (1-452)m3-Fc worked out at 1 ng/mL; with Human Tie2 (1-452)y1-Fc, 1 ng/mL; with Human Tie2 (1-452)c1-Fc, 1 ng/mL; in assay [1], 1.1 ng/mL; in the assay with Human Tie2 (1-452)r1-Fc it was 1.1 ng/mL.
